This passage reports percent of parent results from PMC5774872.

Sequences and labels used below:
B1: unnamed (parent)
chain 1: MSAAILLAPGDVIKRSSEELKQRQIQINLVDWMESEGGKEDKTEPKEESKAEGSKDGEGTQSESGQKEEGGKETKDADVDRRIHTAVGSGSGTKGSGERANENANRGDGKVGGGGGDADAGVGATGTNGGRWVVLTEEIARAIESKYGTKIDVYRDEVPAQIIEVERSLQKELGISREGVAEQTERLRDLRRKEKNGTHAKAVERGGRKQRKKAHGDAQREGVEEEKTSEEPARIGITIEGVMSQKKLLSMIGGVERKMAPIGARESAVMLVSNSIKDVVRATAYFTAPTGDPHWKEVAREASKKKNILAYTSTGGDVKTEFLHLIDHL
chain 2: MAAQNEQRPERIKTTPYLEGDVLSSDSGPLLSVFALQEIMQKVRQVQADYMTATREVDFTVPDVQQILDDIKALAAAQVYKIVKVPSTSFRHIVTQSRDRVLRVDTYYEEMSQVGDVITEDEPEKFYSTIIKKVRFIRGKGSFILHDIPARDHRGMEVAEPEVLGVEFKNVLPVLTAEHRAMIQNALDGSIIENGNVATRDVDVFIGACSEPFYRIYNRFQGYIEAVQLQELRNSIGWLERLGQRKRITYSQEVLTDFRRQDMIWVLALQLPVNPQVVWDVPRSSIANLIMNIATCLPTGEYIAPNPRISSITLTQRITTTGPFAILTGSTPTAQQLNDVRKIYLALMFPGQIILDLKIDPGERMDPAVRMVAGVVGHLLFTAGGRFTNLTQNMARQLDIALNDYLLYMYNTRVQVNYGPTGEPLDFQIGRNQYDCNVFRADFATGTGYNGWATIDVEYRDPAPYVHAQRYIRYCGIDSRELINPTTYGIGMTYHCYNEMLRMLVAAGKDSEAAYFRSMLPFHMVRFARINQIINEDLHSVFSLPDDMFNALLPDLIAGAHQNADPVVLDVSWISLWFAFNRSFEPTHRNEMLEIAPLIESVYASELSVMKVDMRHLSLMQRRFPDVLIQARPSHFWKAVLNDSPEAVKAVMNLSHSHNFINIRDMMRWVLLPSLQPSLKLVLEEEAWAAANDFEDLMLTDQVYMHRDMLPEPRLDDIERFRQEGFYYTNMLEAPPEIDRVVQYTYEIARLQANMGQFRAALRRIMDDDDWIGFGGVLRTVRVKFFDARPPDDILQGLPFSYDTNEKGGLSYATIKYATETTIFYLIYNVEFSNTPDSLVLINPTYTMTKVFINKRIVERVRVGQILAVLNRRFVAYKGKMRIMDITQSLKMGTKLAAPTV
B2: unnamed (parent)
chain 1: B1 chain 2
chain 2: B1 chain 1

In one experiment the parent is B1. As to the kind of experiment: coimmunoprecipitation (IP anti-HA MAb), immunoblot gray-value analysis. As to conditions: with partner chain of the complex shown, five experiments, means ± SDs, parent: 100, read off a plot. (In general: Immunoblotting shows a protein as a band on a membrane.)
Turning to chain 1 MSAAILLAPGDVIKRSSEELKQRQIQINLVDWMESEGGKEDKTEPKEESKAEGSKDGEGTQSESGQKEEGGKETKDADVDRRIHTAVGSGSGTKGSGERANENANRGDGKVGGGGGDADAGVGATGTNGGRWVVLTEEIARAIESKYGTKIDVYRDEVPAQIIEVERSLQKELGISREGVAEQTERLRDLRRKEKNGTHAKAVERGGRKQRKKAHGDAQREGVEEEKTSEEPARIGITIEGVMSQKKLLSMIGGVERKMAPIGARESAVMLVSNSIKDVVAATAYFTAPTGDPHWKEVAREASKKKNILAYTSTGGDVKTEFLHLIDHL [chain 1 R281A], the percent of parent is 100 % of WT.

With chain 1 MSAAILLAPGDVIKRSSEELKQRQIQINLVDWMESEGGKEDKTEPKEESKAEGSKDGEGTQSESGQKEEGGKETKDADVDRRIHTAVGSGSGTKGSGERANENANRGDGKVGGGGGDADAGVGATGTNGGRWVVLTEEIARAIESKYGTKIDVYRDEVPAQIIEVERSLQKELGISREGVAEQTERLRDLRRKEKNGTHAKAVERGGRKQRKKAHGDAQREGVEEEKTSEEPARIGITIEGVMSQKKLLSMIGGVERKMAPIGARESAVMLVSNSIKDVVRATAAFTAPTGDPHWKEVAREASKKKNILAYTSTGGDVKTEFLHLIDHL [chain 1 Y285A], the percent of parent is 7 % of WT.

Turning to chain 1 MSAAILLAPGDVIKRSSEELKQRQIQINLVDWMESEGGKEDKTEPKEESKAEGSKDGEGTQSESGQKEEGGKETKDADVDRRIHTAVGSGSGTKGSGERANENANRGDGKVGGGGGDADAGVGATGTNGGRWVVLTEEIARAIESKYGTKIDVYRDEVPAQIIEVERSLQKELGISREGVAEQTERLRDLRRKEKNGTHAKAVERGGRKQRKKAHGDAQREGVEEEKTSEEPARIGITIEGVMSQKKLLSMIGGVERKMAPIGARESAVMLVSNSIKDVVRGTGYFTAPTGDPHWKEVAREASKKKNILAYTSTGGDVKTEFLHLIDHL [chain 1 A282G A284G], the percent of parent is 42 % of WT.

As for chain 1 MSAAILLAPGDVIKRSSEELKQRQIQINLVDWMESEGGKEDKTEPKEESKAEGSKDGEGTQSESGQKEEGGKETKDADVDRRIHTAVGSGSGTKGSGERANENANRGDGKVGGGGGDADAGVGATGTNGGRWVVLTEEIARAIESKYGTKIDVYRDEVPAQIIEVERSLQKELGISREGVAEQTERLRDLRRKEKNGTHAKAVERGGRKQRKKAHGDAQREGVEEEKTSEEPARIGITIEGVMSQKKLLSMIGGVERKMAPIGARESAVMLVSNSIKDVVAATAYATAPTGDPHWKEVAREASKKKNILAYTSTGGDVKTEFLHLIDHL [chain 1 R281A F286A], the percent of parent is 1 % of WT.

Take chain 1 MSAAILLAPGDVIKRSSEELKQRQIQINLVDWMESEGGKEDKTEPKEESKAEGSKDGEGTQSESGQKEEGGKETKDADVDRRIHTAVGSGSGTKGSGERANENANRGDGKVGGGGGDADAGVGATGTNGGRWVVLTEEIARAIESKYGTKIDVYRDEVPAQIIEVERSLQKELGISREGVAEQTERLRDLRRKEKNGTHAKAVERGGRKQRKKAHGDAQREGVEEEKTSEEPARIGITIEGVMSQKKLLSMIGGVERKMAPIGARESAVMLVSNSIKDVVRATAYATAPTGDPHWKEVAREASKKKNILAYTSTGGDVKTEFLHLIDHL [chain 1 F286A]: the percent of parent is 18 % of WT.

chain 1 MSAAILLAPGDVIKRSSEELKQRQIQINLVDWMESEGGKEDKTEPKEESKAEGSKDGEGTQSESGQKEEGGKETKDADVDRRIHTAVGSGSGTKGSGERANENANRGDGKVGGGGGDADAGVGATGTNGGRWVVLTEEIARAIESKYGTKIDVYRDEVPAQIIEVERSLQKELGISREGVAEQTERLRDLRRKEKNGTHAKAVERGGRKQRKKAHGDAQREGVEEEKTSEEPARIGITIEGVMSQKKLLSMIGGVERKMAPIGARESAVMLVSNSIKDVVRATAAATAPTGDPHWKEVAREASKKKNILAYTSTGGDVKTEFLHLIDHL [chain 1 Y285A F286A]: the percent of parent is 2 % of WT.

A further experiment covers variants of B2. Kind of experiment: coimmunoprecipitation (IP anti-Flag MAb), immunoblot gray-value analysis. The conditions noted are these: with partner chain of the complex shown, five experiments, means ± SDs, parent: 100, read off a plot.
With chain 2 MSAAILLAPGDVIKRSSEELKQRQIQINLVDWMESEGGKEDKTEPKEESKAEGSKDGEGTQSESGQKEEGGKETKDADVDRRIHTAVGSGSGTKGSGERANENANRGDGKVGGGGGDADAGVGATGTNGGRWVVLTEEIARAIESKYGTKIDVYRDEVPAQIIEVERSLQKELGISREGVAEQTERLRDLRRKEKNGTHAKAVERGGRKQRKKAHGDAQREGVEEEKTSEEPARIGITIEGVMSQKKLLSMIGGVERKMAPIGARESAVMLVSNSIKDVVRATAYATAPTGDPHWKEVAREASKKKNILAYTSTGGDVKTEFLHLIDHL [chain 2 F286A], the percent of parent is 57 % of WT.

For chain 2 MSAAILLAPGDVIKRSSEELKQRQIQINLVDWMESEGGKEDKTEPKEESKAEGSKDGEGTQSESGQKEEGGKETKDADVDRRIHTAVGSGSGTKGSGERANENANRGDGKVGGGGGDADAGVGATGTNGGRWVVLTEEIARAIESKYGTKIDVYRDEVPAQIIEVERSLQKELGISREGVAEQTERLRDLRRKEKNGTHAKAVERGGRKQRKKAHGDAQREGVEEEKTSEEPARIGITIEGVMSQKKLLSMIGGVERKMAPIGARESAVMLVSNSIKDVVRATAAATAPTGDPHWKEVAREASKKKNILAYTSTGGDVKTEFLHLIDHL [chain 2 Y285A F286A], the percent of parent was 2 % of WT.

For the variant chain 2 MSAAILLAPGDVIKRSSEELKQRQIQINLVDWMESEGGKEDKTEPKEESKAEGSKDGEGTQSESGQKEEGGKETKDADVDRRIHTAVGSGSGTKGSGERANENANRGDGKVGGGGGDADAGVGATGTNGGRWVVLTEEIARAIESKYGTKIDVYRDEVPAQIIEVERSLQKELGISREGVAEQTERLRDLRRKEKNGTHAKAVERGGRKQRKKAHGDAQREGVEEEKTSEEPARIGITIEGVMSQKKLLSMIGGVERKMAPIGARESAVMLVSNSIKDVVRATAAFTAPTGDPHWKEVAREASKKKNILAYTSTGGDVKTEFLHLIDHL [chain 2 Y285A], the percent of parent was 1 % of WT.

Take chain 2 MSAAILLAPGDVIKRSSEELKQRQIQINLVDWMESEGGKEDKTEPKEESKAEGSKDGEGTQSESGQKEEGGKETKDADVDRRIHTAVGSGSGTKGSGERANENANRGDGKVGGGGGDADAGVGATGTNGGRWVVLTEEIARAIESKYGTKIDVYRDEVPAQIIEVERSLQKELGISREGVAEQTERLRDLRRKEKNGTHAKAVERGGRKQRKKAHGDAQREGVEEEKTSEEPARIGITIEGVMSQKKLLSMIGGVERKMAPIGARESAVMLVSNSIKDVVRGTGYFTAPTGDPHWKEVAREASKKKNILAYTSTGGDVKTEFLHLIDHL [chain 2 A282G A284G]: the percent of parent is 45 % of WT.

Take chain 2 MSAAILLAPGDVIKRSSEELKQRQIQINLVDWMESEGGKEDKTEPKEESKAEGSKDGEGTQSESGQKEEGGKETKDADVDRRIHTAVGSGSGTKGSGERANENANRGDGKVGGGGGDADAGVGATGTNGGRWVVLTEEIARAIESKYGTKIDVYRDEVPAQIIEVERSLQKELGISREGVAEQTERLRDLRRKEKNGTHAKAVERGGRKQRKKAHGDAQREGVEEEKTSEEPARIGITIEGVMSQKKLLSMIGGVERKMAPIGARESAVMLVSNSIKDVVAATAYATAPTGDPHWKEVAREASKKKNILAYTSTGGDVKTEFLHLIDHL [chain 2 R281A F286A]: the percent of parent is 19 % of WT.

For the variant chain 2 MSAAILLAPGDVIKRSSEELKQRQIQINLVDWMESEGGKEDKTEPKEESKAEGSKDGEGTQSESGQKEEGGKETKDADVDRRIHTAVGSGSGTKGSGERANENANRGDGKVGGGGGDADAGVGATGTNGGRWVVLTEEIARAIESKYGTKIDVYRDEVPAQIIEVERSLQKELGISREGVAEQTERLRDLRRKEKNGTHAKAVERGGRKQRKKAHGDAQREGVEEEKTSEEPARIGITIEGVMSQKKLLSMIGGVERKMAPIGARESAVMLVSNSIKDVVAATAYFTAPTGDPHWKEVAREASKKKNILAYTSTGGDVKTEFLHLIDHL [chain 2 R281A], the percent of parent is 130 % of WT.

For the variant chain 2 MSAAILLAPGDVIKRSSEELKQRQIQINLVDWMESEGGKEDKTEPKEESKAEGSKDGEGTQSESGQKEEGGKETKDADVDRRIHTAVGSGSGTKGSGERANENANRGDGKVGGGGGDADAGVGATGTNGGRWVVLTEEIARAIESKYGTKIDVYRDEVPAQIIEVERSLQKELGISREGVAEQTERLRDLRRKEKNGTHAKAVERGGRKQRKKAHGDAQREGVEEEKTSEEPARIGITIEGVMSQKKLLSMIGGVERKMAPIGARESAVMLVSNSIKDVVAATAAATAPTGDPHWKEVAREASKKKNILAYTSTGGDVKTEFLHLIDHL [chain 2 R281A Y285A F286A], the percent of parent is 2 % of WT.

For the variant chain 2 MSAAILLAPGDVIKRSSEELKQRQIQINLVDWMESEGGKEDKTEPKEESKAEGSKDGEGTQSESGQKEEGGKETKDADVDRRIHTAVGSGSGTKGSGERANENANRGDGKVGGGGGDADAGVGATGTNGGRWVVLTEEIARAIESKYGTKIDVYRDEVPAQIIEVERSLQKELGISREGVAEQTERLRDLRRKEKNGTHAKAVERGGRKQRKKAHGDAQREGVEEEKTSEEPARIGITIEGVMSQKKLLSMIGGVERKMAPIGARESAVMLVSNSIKDVVAATAAFTAPTGDPHWKEVAREASKKKNILAYTSTGGDVKTEFLHLIDHL [chain 2 R281A Y285A], the percent of parent is 4 % of WT.
